The source of these data is US20250320281A1.

Experiment in all cases: cell-based or functional assay
Assay [1] deals with HIV-1 Env of isolate MGRM-D-011 (clade D pseudovirus) (HIV-1).
For assay [2], the target named is HIV-1 Env of isolate 6535.3 (HIV-1).
Assay [3] has as its target HIV-1 Env of isolate 92UG024 (clade D pseudovirus) (HIV-1).
The target of assay [4] is HIV-1 Env of pseudovirus MGRM-Chronic-B-010 (HIV-1).
Assay [5] deals with HIV-1 Env of isolate 97ZA012 (clade C) (HIV-1 isolate 97ZA012).
Assay [6] has as its target HIV-1 Env of isolate MGRM-G-019 (HIV-1).
Assay [7] addresses HIV-1 Env of isolate MGRM-D-004 (clade D pseudovirus) (HIV-1).
Assay [8] addresses HIV-1 Env of isolate TRJ0.58 (Acute), clade B, on pseudovirus (HIV-1).
Assay [9] has as its target HIV-1 MGRM-C-028 Env (pseudovirus, clade C) (HIV-1).
Assay [10] concerns the target HIV-1 Env of pseudovirus MGRM-G-017 (HIV-1, clade G isolate MGRM-G-017).
Assay [11] has as its target HIV-1 Env of pseudovirus MGRM-G-019 (HIV-1, clade G isolate MGRM-G-019).
The target of assay [12] is HIV-1 Env of pseudovirus MGRM-F1-022 (HIV-1).
For assay [13], the target named is HIV-1 Env of pseudovirus MGRM-Chronic-B-017 (HIV-1).
Assay [14] has as its target HIV-1 envelope glycoprotein (Env) of isolate 92RW020, clade A (HIV-1).
Assay [15] deals with HIV-1 envelope glycoprotein (Env) of isolate 92RW009, clade A (HIV-1).
Assay [16] concerns the target HIV-1 Env of isolate MGRM-Chronic-B-018 (subtype B pseudovirus) (HIV-1).
The target of assay [17] is HIV-1 Env of isolate MGRM-Chronic-B-020 (subtype B pseudovirus) (HIV-1).
The target in assay [18] is HIV-1 Env of isolate MGRM-Chronic-B-023 (subtype B pseudovirus) (HIV-1).
Assay [19] addresses HIV-1 Env of isolate MGRM-Chronic-B-011 (subtype B pseudovirus) (HIV-1).
Assay [20] addresses HIV-1 Env of isolate MGRM-D-013 (pseudovirus) (HIV-1).
Assay [21] has as its target HIV-1 Env of isolate MGRM-F1-010 (pseudovirus) (HIV-1).
The target of assay [22] is HIV-1 Env of isolate MGRM-AE-004 (HIV-1).
Assay [23] concerns the target HIV-1 Env of pseudovirus isolate MGRM-G-028 (HIV-1).
Assay [24] has as its target HIV-1 CMU02 envelope glycoprotein (Env) on pseudovirus (HIV-1).
Assay [25] deals with HIV-1 JRFL Env (pseudovirus) (HIV-1).
Assay [26] has as its target HIV-1 Env of isolate MGRM-G-004 (HIV-1).
Assay [27] concerns the target HIV-1 Env of isolate APV-17 (HIV-1).
For assay [28], the target named is HIV-1 Env of isolate MGRM-AG-009 (subtype AG) (HIV-1).
For assay [29], the target named is HIV-1 Env of isolate MG RM-D-004 (HIV-1).
For assay [30], the target named is HIV-1 Env of isolate MGRM-Chronic-B-004 (subtype B) (HIV-1).
Assay [31] concerns the target HIV-1 Env of isolate MGRM-Chronic-B-001 (subtype B) (HIV-1).
Assay [32] addresses HIV-1 Env of isolate MGRM-A-001 (HIV-1).
Assay [33] deals with HIV-1 envelope glycoprotein (Env) of isolate MGRM-C-019 (HIV-1).
Assay [34] has as its target HIV-1 Env of isolate MG RM-D-021 (HIV-1).
The target in assay [35] is HIV-1 Env of isolate MG RM-D-012 (HIV-1).
Assay [36] concerns the target HIV-1 envelope glycoprotein (Env) of isolate MGRM-C-028 (HIV-1).
In assay [37] the target is HIV-1 Env of isolate 92WR024 (HIV-1).
Assay [38] concerns the target HIV-1 Env of isolate 93IN905 (subtype C) (HIV-1).
The target in assay [39] is HIV-1 Env of isolate 93UG077 (HIV-1).
Assay [40] concerns the target HIV-1 envelope glycoprotein (Env) of isolate MGRM-C-014 (HIV-1).
Assay [41] has as its target HIV-1 Env of isolate MGRM-Chronic-B-018 (subtype B) (HIV-1).

Bounds are passed on as bounds.

Chain of 4995_E20 (PGT-142) (antibody) (VH): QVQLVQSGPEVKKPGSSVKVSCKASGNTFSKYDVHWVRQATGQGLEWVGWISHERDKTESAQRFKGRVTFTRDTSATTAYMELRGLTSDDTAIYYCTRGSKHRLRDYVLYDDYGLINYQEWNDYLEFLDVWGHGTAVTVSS
Chain of 4995_E20 (PGT-142) (antibody) (VL): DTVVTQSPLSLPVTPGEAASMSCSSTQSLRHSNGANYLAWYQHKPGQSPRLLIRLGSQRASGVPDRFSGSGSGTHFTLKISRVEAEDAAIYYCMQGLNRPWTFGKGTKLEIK
Chain of 4970_K22 (PGT-144) (antibody) (VH): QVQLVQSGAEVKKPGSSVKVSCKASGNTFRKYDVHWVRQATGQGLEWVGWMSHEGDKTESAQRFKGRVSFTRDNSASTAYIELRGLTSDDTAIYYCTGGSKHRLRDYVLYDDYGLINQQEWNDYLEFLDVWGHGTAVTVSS
Chain of 4970_K22 (PGT-144) (antibody) (VL): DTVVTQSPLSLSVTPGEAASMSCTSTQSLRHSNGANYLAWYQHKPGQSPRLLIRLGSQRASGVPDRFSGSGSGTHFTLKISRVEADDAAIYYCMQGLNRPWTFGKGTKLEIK
Chain of 4993_K13 (PGT-141) (antibody) (VH): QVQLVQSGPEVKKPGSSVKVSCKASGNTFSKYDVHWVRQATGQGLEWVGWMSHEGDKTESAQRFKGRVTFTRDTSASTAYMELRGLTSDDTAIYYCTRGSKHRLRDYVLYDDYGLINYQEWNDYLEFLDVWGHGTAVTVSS
Chain of 4980_N08 (PGT-143) (antibody) (VH): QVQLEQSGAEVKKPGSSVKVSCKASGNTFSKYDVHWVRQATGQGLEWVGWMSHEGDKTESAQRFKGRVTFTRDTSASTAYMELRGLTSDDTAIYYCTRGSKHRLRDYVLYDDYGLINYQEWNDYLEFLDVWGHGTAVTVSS
Chain of 4980_N08 (PGT-143) (antibody) (VL): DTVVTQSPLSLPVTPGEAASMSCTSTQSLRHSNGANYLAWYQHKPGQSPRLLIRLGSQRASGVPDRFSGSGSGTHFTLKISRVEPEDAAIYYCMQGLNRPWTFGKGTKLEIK

On to 1496_C09 (PG9) (TCN-109) (antibody), for which the IC50 (µg/ml), pseudovirus neutralization worked out at 0.06 µg/mL in [1]; 1.91 µg/mL in [3]; 0.004 µg/mL in [4]; 1.27 µg/mL in assay [5]; 0.03 µg/mL in assay [7]; 0.43 µg/mL in assay [8]. Further, the IC50 (µg/ml), pseudovirus neutralization was determined as 0.03 µg/mL in [10]; 0.67 µg/mL in [11]; 0.06 µg/mL in assay [12]; 0.32 µg/mL in assay [13]; 0.08 µg/mL in assay [14]; 0.03 µg/mL in [15]. The IC50 (µg/mL), pseudovirus neutralization in [2] worked out at 1.05 µg/mL; in [6], 14.6 µg/mL. Further, in assay [9], the IC50 neutralization was 0.121 µg/mL.

Consider 4838_L06 (PGT-121) (antibody), for which the IC50 (µg/mL), pseudovirus neutralization in [16] was over 50 µg/mL; in assay [17], 0.004 µg/mL; in [18] it was 0.005 µg/mL; in assay [19], over 50 µg/mL. The IC50, pseudovirus neutralization in assay [20] is over 50 µg/mL; in assay [21], 0.016 µg/mL. Besides, the 50% inhibitory concentration (IC50) (in general, the midpoint of a concentration-inhibition curve) in [22] is over 50 µg/mL.

Regarding 4858_P08 (PGT-123) (antibody), the IC50 (µg/mL), pseudovirus neutralization in assay [16] is over 50 µg/mL; in assay [17], 0.005 µg/mL; in assay [23], 0.008 µg/mL; in assay [18], 0.055 µg/mL; in [19] it was over 50 µg/mL. Also, the IC50 neutralization in [9] amounted to 0.443 µg/mL. In [24], the neutralization IC50 was over 10 µg/mL. Also, the neutralization IC80 in assay [24] was over 10 µg/mL. The neutralization IC90 in assay [24] was over 10 µg/mL. Further, the neutralization IC95 in [24] was over 10 µg/mL. The neutralization IC50 (pseudovirus) in assay [25] is 0.0283 µg/mL. Moreover, the values for the IC50, pseudovirus neutralization in assay [20] and in assay [21] were over 50 µg/mL and 0.016 µg/mL, respectively. Also, in assay [22], the IC50 is over 50 µg/mL.

4877_D15 (PGT-122) (antibody): the IC50 (µg/mL), pseudovirus neutralization in assay [16] is over 50 µg/mL; in [17], 0.005 µg/mL; in [23] it was 0.01 µg/mL; in [18], 0.01 µg/mL; in [19], over 50 µg/mL. In assay [9], this substance came in with an IC50 neutralization of 2.06 µg/mL. Moreover, the neutralization IC50 (pseudovirus) in assay [25] came to 0.0471 µg/mL. Moreover, the IC50, pseudovirus neutralization was over 50 µg/mL in assay [20] and 0.024 µg/mL in [21]. The substance further yielded an IC50 in assay [22] of over 50 µg/mL.

In the case of 4970_K22 (PGT-144) (antibody), the IC50 (µg/mL), pseudovirus neutralization in assay [6] and in [26] was over 50 µg/mL throughout. Besides, the IC50 (neutralizing activity, pseudovirus) in assay [25] was over 10 µg/mL.

As to 4980_N08 (PGT-143) (antibody), the IC50 (µg/mL), pseudovirus neutralization in assay [6] was 4.77 µg/mL; in assay [26], over 50 µg/mL. The substance further came in with an IC50 (neutralizing activity, pseudovirus) in [25] of over 10 µg/mL.

In the case of 4993_K13 (PGT-141) (antibody), the IC50 (µg/mL), pseudovirus neutralization was 20.3 µg/mL in assay [6] and over 50 µg/mL in [26]. Besides, the IC50 (neutralizing activity, pseudovirus) in assay [25] was over 10 µg/mL.

Regarding 4995_E20 (PGT-142) (antibody), the IC50 (µg/mL), pseudovirus neutralization was 5.95 µg/mL in assay [6] and over 50 µg/mL in assay [26]. In assay [25], this substance came in with an IC50 (neutralizing activity, pseudovirus) of over 10 µg/mL.

In the case of 5114_A19 (PGT-128) (antibody), the neutralization IC50 in assay [27] is 0.016 µg/mL; in [2] it was 0.011 µg/mL. For the same substance, the IC50 (µg/mL), pseudovirus neutralization in [28] was 0.021 µg/mL; in assay [23], 0.008 µg/mL; in assay [29], 24.9 µg/mL; in assay [33] it was 0.01 µg/mL; in [34], 0.014 µg/mL; in [35] it was over 50 µg/mL. Further, the IC50 (µg/mL), pseudovirus neutralization in assay [36] is 14.4 µg/mL; in assay [40], over 50 µg/mL. Besides, the IC50 neutralization in [30] is 0.009 µg/mL; in [31], over 50 µg/mL; in assay [38], 0.009 µg/mL; in assay [41] it was 0.02 µg/mL. The IC50 was over 50 µg/mL in assay [32], over 50 µg/mL in assay [37] and 0.014 µg/mL in assay [39].

As to 5123_A06 (PGT-125) (antibody), the IC50 (µg/mL), pseudovirus neutralization is over 50 µg/mL in assay [16]; 0.087 µg/mL in [17]; 0.012 µg/mL in assay [23]; over 50 µg/mL in assay [18]; 3.23 µg/mL in [19]. For the same substance, in [9], the IC50 neutralization worked out at 5.78 µg/mL. Also, the neutralization IC50 (pseudovirus) in [25] amounted to 0.0156 µg/mL. The IC50, pseudovirus neutralization in assay [20] and in assay [21] was over 50 µg/mL in each case. Besides, the half-inhibitory concentration (IC50) in [22] is over 50 µg/mL.

On to 5141_B17 (PGT-126) (antibody), for which the IC50 (µg/mL), pseudovirus neutralization in [16] is 0.052 µg/mL; in assay [17], 0.021 µg/mL; in [23] it was 0.012 µg/mL; in assay [18] it was over 50 µg/mL; in [19], 0.108 µg/mL. In addition, in [9], the IC50 neutralization worked out at 0.283 µg/mL. Moreover, the IC50, pseudovirus neutralization was over 10 µg/mL in assay [24], over 50 µg/mL in assay [20] and over 50 µg/mL in assay [21]. The substance also gave an IC80 (pseudovirus neutralization) in [24] of over 10 µg/mL. Also, the IC90 (pseudovirus neutralization) in assay [24] was over 10 µg/mL. In assay [24], this substance returned an IC95 (pseudovirus neutralization) of over 10 µg/mL. The substance also registered a neutralization IC50 (pseudovirus) in assay [25] of 0.014 µg/mL. In [22], the IC50 is over 50 µg/mL.

With 5145_B14 (PGT-127) (antibody), the IC50 (µg/mL), pseudovirus neutralization in assay [16] is 1.9 µg/mL; in assay [17], 0.05 µg/mL; in assay [23], 0.032 µg/mL; in assay [18] it was over 50 µg/mL; in assay [19], 0.297 µg/mL. Moreover, the IC50, pseudovirus neutralization in assay [20] and in assay [21] was over 50 µg/mL each time. Also, the half-inhibitory concentration (IC50) in assay [22] is over 50 µg/mL.

For the substance PGV04 (antibody), the IC50 (µg/mL), pseudovirus neutralization in [2] is 0.757 µg/mL; in [6] it was 0.027 µg/mL; in assay [26] it was over 50 µg/mL.

On to VRC01 (antibody), for which the IC50 (µg/mL), pseudovirus neutralization is 0.06 µg/mL in assay [6] and over 50 µg/mL in assay [26]. Also, the concentration for half-maximal inhibition (IC50) in assay [34] amounted to 33.4 µg/mL; in assay [35], 0.216 µg/mL.
